Results: publication PMC516168

Target: Mc-VHA-a fused to YFP (M. crystallinum)
Assay: FRET or BRET; in vivo FRET (CFP donor, YFP acceptor, fused to C-termini) in co-transformed A. thaliana mesophyll protoplasts; excitation 458 nm; acceptor photobleaching at 514 nm; confocal microscopy

FRET efficiency: 0.45
Substance: Mc-VHA-c fused to CFP (natural protein)
